Earlier results, collected in PMC7109175.
pKd: −log10 of the molar value.

Target: cMyBP-C (Mus musculus) (UniProt O70468)
Chain of UniProt O70468 (O70468 whole entry): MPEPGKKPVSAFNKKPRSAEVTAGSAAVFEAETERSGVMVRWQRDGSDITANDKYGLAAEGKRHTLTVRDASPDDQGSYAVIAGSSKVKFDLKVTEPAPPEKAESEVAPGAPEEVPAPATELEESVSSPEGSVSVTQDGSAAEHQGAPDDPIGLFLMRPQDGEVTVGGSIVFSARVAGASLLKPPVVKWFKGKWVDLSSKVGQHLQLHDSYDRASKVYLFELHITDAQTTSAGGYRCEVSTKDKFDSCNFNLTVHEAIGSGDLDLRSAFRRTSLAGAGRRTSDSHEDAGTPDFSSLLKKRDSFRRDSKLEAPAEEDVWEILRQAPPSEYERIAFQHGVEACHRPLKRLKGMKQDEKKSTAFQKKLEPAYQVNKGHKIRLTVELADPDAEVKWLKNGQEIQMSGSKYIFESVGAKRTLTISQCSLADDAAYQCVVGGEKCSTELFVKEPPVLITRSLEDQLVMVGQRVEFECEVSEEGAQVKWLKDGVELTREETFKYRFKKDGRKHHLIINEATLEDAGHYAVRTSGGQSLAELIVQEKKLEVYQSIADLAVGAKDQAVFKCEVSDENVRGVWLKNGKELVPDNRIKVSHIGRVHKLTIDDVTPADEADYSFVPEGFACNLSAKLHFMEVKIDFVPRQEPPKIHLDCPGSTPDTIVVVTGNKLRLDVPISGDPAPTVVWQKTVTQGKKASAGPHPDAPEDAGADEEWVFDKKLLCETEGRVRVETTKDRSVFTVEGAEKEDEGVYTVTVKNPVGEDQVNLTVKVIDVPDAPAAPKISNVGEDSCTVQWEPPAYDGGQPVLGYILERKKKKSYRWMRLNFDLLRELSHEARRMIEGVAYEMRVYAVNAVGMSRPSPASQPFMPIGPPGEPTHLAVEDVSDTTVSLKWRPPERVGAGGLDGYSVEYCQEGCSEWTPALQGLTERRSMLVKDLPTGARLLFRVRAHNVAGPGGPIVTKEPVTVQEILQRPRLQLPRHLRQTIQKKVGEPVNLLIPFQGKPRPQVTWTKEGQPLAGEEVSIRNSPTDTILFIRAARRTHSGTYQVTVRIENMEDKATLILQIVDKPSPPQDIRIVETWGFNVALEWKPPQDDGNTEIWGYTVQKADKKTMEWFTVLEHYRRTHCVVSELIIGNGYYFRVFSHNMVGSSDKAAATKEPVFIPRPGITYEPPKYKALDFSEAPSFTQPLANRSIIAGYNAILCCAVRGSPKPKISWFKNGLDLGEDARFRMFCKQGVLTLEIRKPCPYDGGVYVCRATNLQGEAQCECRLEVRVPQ

pKd: 6.10
Substance: Fhod3 (from UniProt Q76LL6)
